Laboratory results from patent publication US20050037969A1 (ARBOR VITA, published 2005).
Ends that are not written are not given here. * marks the point of attachment. Biotin = O=C1N[C@H]2[C@H](CS[C@H]2CCCCC(=O)*)N1

What was measured:
Test in all cases: A/G assays
[1] = target: T1, X11β PDZ-GST fusion protein (Rattus norvegicus (Rat), UniProt O35431 560-745)
T1 construct: Order of GST and PDZ part and limits not seen in the excerpts
T1 chain: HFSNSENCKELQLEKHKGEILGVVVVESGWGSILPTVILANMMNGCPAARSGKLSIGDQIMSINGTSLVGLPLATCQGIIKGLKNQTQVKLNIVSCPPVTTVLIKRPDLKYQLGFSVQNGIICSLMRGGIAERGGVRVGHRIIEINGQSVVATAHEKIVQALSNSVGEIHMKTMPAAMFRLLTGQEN

[2] = target: T2, GST-cytohesin binding protein PDZ domain fusion protein (Homo sapiens (Human), UniProt O60759 74-165)
T2 construct: also called CBP; not shown: glutathione S-transferase encoded by vector pGEX-3X (Pharmacia)
T2 sequence: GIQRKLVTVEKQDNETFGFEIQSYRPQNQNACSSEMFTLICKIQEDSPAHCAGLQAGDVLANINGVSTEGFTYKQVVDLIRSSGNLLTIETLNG

[3] = target: T3, GST-AF6 PDZ domain fusion protein (Homo sapiens (Human), UniProt P55196 1001-1093)
T3 construct: also called af-6 protein; not shown: glutathione S-transferase encoded by vector pGEX-3X (Pharmacia)
T3 sequence: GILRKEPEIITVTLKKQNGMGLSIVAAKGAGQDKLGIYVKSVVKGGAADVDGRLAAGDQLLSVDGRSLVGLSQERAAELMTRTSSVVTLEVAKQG

[4] = target: T4, ConEn PDZ-GST fusion protein (Homo sapiens (Human), UniProt Q969H4 193-287)
T4 construct: The label ConEn is not explained in the excerpts
T4 sequence: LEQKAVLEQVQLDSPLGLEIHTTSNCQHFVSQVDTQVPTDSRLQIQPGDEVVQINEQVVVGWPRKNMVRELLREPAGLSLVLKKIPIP

[5] = target: T5, PICK1 PDZ-GST fusion protein (Bos taurus (Bovine), UniProt Q2T9M1 17-105)
T5 construct: Order of GST and PDZ part and limits not seen in the excerpts

[6] = target: T6, GST-prIL16 fusion protein (PDZ domains 1-2) (Homo sapiens (Human), UniProt Q14005 1111-1324)
T6 construct: also called putative interleukin 16 precursor; not shown: glutathione S-transferase encoded by vector pGEX-3X (Pharmacia)
T6 sequence: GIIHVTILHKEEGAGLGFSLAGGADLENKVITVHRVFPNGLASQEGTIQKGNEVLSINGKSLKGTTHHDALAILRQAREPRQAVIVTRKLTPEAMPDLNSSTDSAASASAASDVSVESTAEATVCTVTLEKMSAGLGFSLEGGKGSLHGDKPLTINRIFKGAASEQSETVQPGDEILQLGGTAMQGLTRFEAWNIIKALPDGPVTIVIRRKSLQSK

[7] = target: T7, GST-CASK PDZ domain fusion protein (Homo sapiens, UniProt O14936 486-575)
T7 construct: also called Homo sapiens CASK protein
T7 sequence: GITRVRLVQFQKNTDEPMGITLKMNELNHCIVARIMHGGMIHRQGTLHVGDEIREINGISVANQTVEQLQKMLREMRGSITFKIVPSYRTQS

[8] = target: T8, K858 PDZ-GST fusion protein (Homo sapiens (Human), UniProt Q8WWI1 1038-1131)
T8 construct: Order of GST and PDZ part and limits not seen in the excerpts
T8 sequence: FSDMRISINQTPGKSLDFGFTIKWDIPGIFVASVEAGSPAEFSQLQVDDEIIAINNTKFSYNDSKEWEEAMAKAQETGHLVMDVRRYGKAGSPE

[9] = target: T9, GST-PTN-4 PDZ domain fusion protein (Homo sapiens (Human), UniProt P29074 517-605)
T9 construct: also called protein-tyrosine phosphatase meg1; not shown: glutathione S-transferase encoded by vector pGEX-3X (Pharmacia)
T9 sequence: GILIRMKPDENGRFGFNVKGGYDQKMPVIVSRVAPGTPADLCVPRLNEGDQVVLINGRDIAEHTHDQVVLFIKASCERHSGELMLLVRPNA

[10] = target: T10, GST-mouse syntenin fusion protein (Mus musculus, UniProt O08992 108-286)
T10 construct: also called Mus musculus Syntenin; not shown: glutathione S-transferase encoded by vector pGEX-3X (Pharmacia)
T10 chain: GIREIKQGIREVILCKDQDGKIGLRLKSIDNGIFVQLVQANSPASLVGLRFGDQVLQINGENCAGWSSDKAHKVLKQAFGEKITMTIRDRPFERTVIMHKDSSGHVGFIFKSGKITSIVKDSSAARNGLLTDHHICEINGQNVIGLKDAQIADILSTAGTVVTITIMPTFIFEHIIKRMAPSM

[11] = target: T11, GST-MPP1 PDZ domain fusion protein (Homo sapiens (Human), UniProt Q00013 67-152)
T11 construct: also called p55; 55 Kd erythrocyte membrane protein; not shown: glutathione S-transferase encoded by vector pGEX-3X (Pharmacia)
T11 sequence: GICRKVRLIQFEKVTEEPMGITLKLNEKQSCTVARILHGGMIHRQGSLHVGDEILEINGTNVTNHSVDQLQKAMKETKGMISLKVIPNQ

[12] = target: T12, GST-TAX-IP43 PDZ domain fusion protein (human, UniProt Q13884 109-180)
T12 construct: also called TAX43; not shown: glutathione S-transferase encoded by vector pGEX-3X (Pharmacia)
T12 sequence: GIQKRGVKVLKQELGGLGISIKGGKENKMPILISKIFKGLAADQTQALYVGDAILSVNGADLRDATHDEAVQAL

[13] = target: T13, K316 PDZ-GST fusion protein (Homo sapiens (Human), UniProt Q14CM0 72-159)
T13 construct: Order of GST and PDZ part and limits not seen in the excerpts

[14] = target: T14, GST-TAX-IP2 PDZ domain fusion protein (human, UniProt O14908 129-216)
T14 construct: also called TAX-1P2; TAX2; not shown: glutathione S-transferase encoded by vector pGEX-3X (Pharmacia)
T14 chain: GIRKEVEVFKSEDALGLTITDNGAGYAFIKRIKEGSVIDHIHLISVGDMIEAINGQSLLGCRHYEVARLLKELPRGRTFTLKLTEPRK

[15] = target: T15, GST-RGS12 PDZ domain fusion protein (human, UniProt O14924 17-85)
T15 construct: also called human regulator of G-protein signalling 12; not shown: glutathione S-transferase encoded by vector pGEX-3X (Pharmacia)
T15 sequence: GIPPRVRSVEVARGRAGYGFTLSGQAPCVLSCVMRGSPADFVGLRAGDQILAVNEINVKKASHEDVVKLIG

Measured: binding result

T5 sequence (Q2T9M1 other isoform, or with tags, fused parts or gaps limits assumed): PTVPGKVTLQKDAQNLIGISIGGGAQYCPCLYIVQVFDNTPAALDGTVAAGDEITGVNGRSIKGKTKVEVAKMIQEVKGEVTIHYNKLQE
T13 sequence (Q14CM0 72-159 limits assumed): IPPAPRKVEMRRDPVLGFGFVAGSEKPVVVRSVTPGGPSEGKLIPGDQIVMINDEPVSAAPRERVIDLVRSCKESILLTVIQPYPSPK

Biotin-SVFSIPTLWSPWPPSSSSQL (also called CD3η; CD3-eta) [CD3n C-terminal peptide AA4L, biotinylated]
no binding: all assays above

Biotin-EVICYIEKPGVETLEDSVF [CDW125 (IL5R) C-terminal peptide AA28L, biotinylated]
not listed: [9] | [15]
no binding: all other assays above

Biotin-KDITSDSENSNFRNEIQSLV (also called CD95 (Apo-1/Fas); AAI3L) [CD95 (Fas) C-terminal peptide AA13L, biotinylated]
no binding: all assays above

Biotin-TTNNNPNSAVNIKKIFTDV [KV1.3 C-terminal peptide AA33L, biotinylated]
not listed: [15]
no binding: all other assays above

Biotin-KDSRPSFVGSSSGHTSTTL (also called CDW128E (IL8RB)) [CDW128B (IL8RB) C-terminal peptide AA29.2L, biotinylated]
not listed: [15]
no binding: all other assays above

Biotin-PYGTAMEKAQLKPPATSDA (also called CD49E (alpha-4)) [CD49E C-terminal peptide AA11L, biotinylated]
no binding: all assays above

B1: CD138 C-terminal peptide AA18L, biotinylated (peptide)
peptide: Biotin-PKQANGGAYQKPTKQEEFYA
notes: also called CD138 (syndecan-1); CD138 (syndecan)
not listed: [7] | [10]
no binding: all other assays above

Biotin-CAISGTSSDRGYGSPRYAEV (also called AA3L-V) [Clasp-4 C-terminal peptide AA3L, biotinylated]
not listed: [3]
no binding: all other assays above
